The results in this text go back to paper PMC2695768.

The experiment has as its target influenza virus nucleoprotein (NP), A/Victoria/3/75, wild type (influenza A virus A/Victoria/3/75). The experiment can be described thus: cryo-EM structure.

“influenza virus nucleoprotein (NP), A/Victoria/3/75, wild type (natural protein)” showed a stoichiometry N of 9.

One may read the stoichiometry N as a count of units in the complex or per binding partner.
